Measurements reported in US20200166512A1 (CENTRE NATIONAL DE LA RECHERCHE SCIENTIFIQUE, published 2020).
Where no end group is shown, it is not given here.

T1: antigenic peptide REEHIEGGHSNTDRPSR (human immunogenic peptide, residues 365-381 of IL4I1) coupled to BSA (human, also: coupled through Ahx spacer and Cys to BSA carrier, end not given here)
T1 peptide: REEHIEGGHSNTDRPSR


Target: T1, antigenic peptide REEHIEGGHSNTDRPSR …
Experiment: ELISA screen against the antigenic peptide coupled to BSA

| Binder | binding result |
| --- | --- |
| anti-IL4I1 antibody A-3 IgG/λ (rabbit monoclonal, clone A-3) (antibody, V domains shown, Rabbit IgG/lambda from a hybridoma; It was used as hybridoma supernatant (clone A) or as purified IgG (subclone A-3); also called IgG A-3; AbA-3) VH: QSLEESGGDLVKPEGSLTLTCTASGFSLSAGYFMCWVRQAPGKGLEWIGSIFSGSSGSTYYASWAKGRFTISKTSSTTVTLQMTSLTAADTAIYFCARGGVVDGRVAYDNSFDHWGPGTLVTVSS VL: ELVLTQSPSVSAALGASAKLTCTLSSAHSTYTIDWYQQQPGESPRYLMQLKSDGTYTKGTGVPDRFSGSSSGADRYLIIPSVQADDEAGYYCGANYSGGYVFGGGTQLTVTR | binds |
| anti-IL4I1 antibody D-5 IgG/λ (rabbit monoclonal, clone D-5, hybridoma CNCM I-5355) (antibody, V domains shown, Rabbit IgG/lambda from a hybridoma; It was used as hybridoma supernatant (clone D) or as purified IgG (subclone D-5); also called IgG D-5; AbD-5) VH: QQQLVESGGDLVKPEGSLTLTCTASGFSLSAGYFICWIRQAPGKGLEWIGSVFSGSSGTTYYASWAKGRFTISKTSSTTVTLQMTSLTAADTAIYFCARGGVLGGRVAYDNSFDHWGPGTLVTVSS VL: ELVLTQSPSVSAALGASAKLTCTLSSAHSTYTIEWYQQQPGESPRYLMQLKSDGSYTKGTGVPDRFSGSSSGADRYLIIFSVQADDEADYYCGANYSSGYVFGGGTQLTVT | binds |
